In US11135246B2, “Peptides and combination of peptides for use in immunotherapy against leukemias and other cancers” (Immatics Biotechnologies GmbH, priority 2017, dated 2021):

Assays:
HLA-B*07:02 = HLA-B*07:02 (Homo sapiens, UniProt P01889); assay: MHC binding assay, UV-ligand exchange with β2m ELISA, HLA-B*07:02; details: binding to HLA-B*07:02, UV-ligand exchange
Excerpt: (§1) Candidate peptides for T cell based therapies according to the present invention were further tested for their MHC binding capacity (affinity). The individual peptide-MHC complexes were produced by UV-ligand exchange, where a UV-sensitive peptide is cleaved upon UV-irradiation, and exchanged with the peptide of interest as analyzed. Only peptide candidates that can effectively bind and stabilize the peptide-receptive MHC molecules prevent dissociation of the MHC complexes. To determine the yield of the exchange reaction, an ELISA was performed based on the detection of the light chain (β2m) of stabilized MHC complexes. The assay was performed as generally described in Rodenko et al. (Rodenko et al., 2006).
(§2) 96 well MAXISorp plates (NUNC) were coated over night with 2 ug/ml streptavidin in PBS at room temperature, washed 4× and blocked for 1 h at 37° C. in 2% BSA containing blocking buffer. Refolded HLA-A*02:01/MLA-001 monomers served as standards, covering the range of 15-500 ng/ml. Peptide-MHC monomers of the UV-exchange reaction were diluted 100-fold in blocking buffer. Samples were incubated for 1 h at 37° C., washed four times, incubated with 2 ug/ml HRP conjugated anti-β2m for 1 h at 37° C., washed again and detected with TMB solution that is stopped with […]. Absorption was measured at 450 nm. Candidate peptides that show a high exchange yield (preferably higher than 50%, most preferred higher than 75%) are generally preferred for a generation and production of antibodies or fragments thereof, and/or T cell receptors or fragments thereof, as they show sufficient avidity to the MHC molecules and prevent dissociation of the MHC complexes.

HLA-B*44:02 = HLA-B*44:02 (Homo sapiens, UniProt P01889, A223V/A65T/A93T/A95T/D201E/D98Y/E176V/E187L/E204Q/E69K/G107R/H137Y/K202T/L105A/L119I/N104T/N87E/Q56L/Q94N/R106L/R155S/R180D/S101N/S121R/S35A/S48T/T118I/V36M/W191S/Y140D/Y91S); assay: MHC binding assay, UV-ligand exchange with β2m ELISA, HLA-B*44:02; details: binding to HLA-B*44:02, UV-ligand exchange
Excerpt: as §1, §2

Peptide exchange (MHC class I binding score, peptide exchange yield) (HLA-B*07:02)	Peptide exchange (MHC class I binding score, peptide exchange yield) (HLA-B*44:02)	Substance
“+++” (>50 = +++)		77 (RPNGNSLFTSA; listed as Homo sapiens) [compound 77]
“+++” (>50 = +++)		78 (RPRGLALVL; listed as Homo sapiens) [compound 78]
“+++” (>50 = +++)		79 (SPVPSHWMVA; listed as Homo sapiens) [compound 79]
“++” (>20% = ++)		80 (KPLFKVSTF; listed as Homo sapiens) [compound 80]
“+++” (>50 = +++)		81 (SESPWLHAPSL; listed as Homo sapiens) [compound 81]
“+++” (>50 = +++)		82 (APFGFLGMQSL; listed as Homo sapiens) [compound 82]
“+++” (>50 = +++)		83 (IPVSRPIL; listed as Homo sapiens) [compound 83]
“+++” (>50 = +++)		84 (SPKLQIAAM; listed as Homo sapiens) [compound 84]
“++” (>20% = ++)		85 (IPVSHPVL; listed as Homo sapiens) [compound 85]
“++” (>20% = ++)		86 (IPASHPVL; listed as Homo sapiens) [compound 86]
“+++” (>50 = +++)		87 (FPAPILRAV; listed as Homo sapiens) [compound 87]
“++” (>20% = ++)		88 (MPDPHLYHQM; listed as Homo sapiens) [compound 88]
“++” (>20% = ++)		89 (FPETVNNLL; listed as Homo sapiens) [compound 89]
“++” (>20% = ++)		90 (KPKAAKPKA; listed as Homo sapiens) [compound 90]
“++” (>20% = ++)		91 (KPKAAKPKAA; listed as Homo sapiens) [compound 91]
“++” (>20% = ++)		92 (KAKKPAGAA; listed as Homo sapiens) [compound 92]
“+++” (>50 = +++)		93 (KARKSAGAA; listed as Homo sapiens) [compound 93]
“++” (>20% = ++)		94 (KPKAAKPKKAAA; listed as Homo sapiens) [compound 94]
“++” (>20% = ++)		95 (KPKAAKPKTA; listed as Homo sapiens) [compound 95]
“+++” (>50 = +++)		96 (KPKKAPKSPA; listed as Homo sapiens) [compound 96]
“++” (>20% = ++)		97 (LPFGKIPIL; listed as Homo sapiens) [compound 97]
“+++” (>50 = +++)		98 (YPIALTRAEM; listed as Homo sapiens) [compound 98]
“++++” (>75% = ++++)		99 (SPRAINNLVL; listed as Homo sapiens) [compound 99]
“++” (>20% = ++)		100 (YPYQERVFL; listed as Homo sapiens) [compound 100]
“+++” (>50 = +++)		101 (NPRYPNYMF; listed as Homo sapiens) [compound 101]
	“++” (>20% = ++)	183 (GESQDSTTAL; listed as Homo sapiens) [compound 183]

Peptide exchange (MHC class I binding score, peptide exchange yield) (HLA-B*07:02)	Peptide exchange (MHC class I binding score, peptide exchange yield) (HLA-B*44:02)	Substance
	“++” (>20% = ++)	184 (RMPPFTQAF; listed as Homo sapiens) [compound 184]
	“+++” (>50 = +++)	185 (SEGDNVESW; listed as Homo sapiens) [compound 185]
	“+” (>10% = +)	186 (NEQKIVRF; listed as Homo sapiens) [compound 186]
	“+” (>10% = +)	187 (SDAQRPSSF; listed as Homo sapiens) [compound 187]
	“+++” (>50 = +++)	257 (KEFFFVKVF; listed as Homo sapiens) [compound 257]
	“+++” (>50 = +++)	258 (EELFRDGVNW; listed as Homo sapiens) [compound 258]
	“++” (>20% = ++)	259 (EENTLVQNY; listed as Homo sapiens) [compound 259]
	“+++” (>50 = +++)	260 (AEIGEGAYGKVF; listed as Homo sapiens) [compound 260]
	“+++” (>50 = +++)	261 (NEIEHIPVW; listed as Homo sapiens) [compound 261]
	“+++” (>50 = +++)	262 (QENQAETHAW; listed as Homo sapiens) [compound 262]
	“+++” (>50 = +++)	263 (REAGFQVKAY; listed as Homo sapiens) [compound 263]
	“+++” (>50 = +++)	264 (SEDHSGSYW; listed as Homo sapiens) [compound 264]
	“+++” (>50 = +++)	265 (QEVDASIFKAW; listed as Homo sapiens) [compound 265]
	“++” (>20% = ++)	266 (VDASIFKAW; listed as Homo sapiens) [compound 266]
	“+++” (>50 = +++)	267 (KEKFPINGW; listed as Homo sapiens) [compound 267]
	“++” (>20% = ++)	268 (NEDKGTKAW; listed as Homo sapiens) [compound 268]
	“+++” (>50 = +++)	269 (KELEDLNKW; listed as Homo sapiens) [compound 269]
	“++” (>20% = ++)	270 (AESEDLAVHL; listed as Homo sapiens) [compound 270]
	“++” (>20% = ++)	271 (AESEDLAVHLY; listed as Homo sapiens) [compound 271]
	“+++” (>50 = +++)	272 (KEFELRSSW; listed as Homo sapiens) [compound 272]
	“++” (>20% = ++)	273 (AEIEIVKEEF; listed as Homo sapiens) [compound 273]
	“+++” (>50 = +++)	274 (GEAVTDHPDRLW; listed as Homo sapiens) [compound 274]
	“++++” (>75% = ++++)	275 (TENPLTKLL; listed as Homo sapiens) [compound 275]
	“+++” (>50 = +++)	276 (EEEGNLLRSW; listed as Homo sapiens) [compound 276]
	“+++” (>50 = +++)	277 (EEGNLLRSW; listed as Homo sapiens) [compound 277]
